Values of other authors, collected in article PMC9254164.

Target: phospho-ubiquitin (Homo sapiens) (UniProt P0CG47)

Sequence of Parkin (O60260 whole entry): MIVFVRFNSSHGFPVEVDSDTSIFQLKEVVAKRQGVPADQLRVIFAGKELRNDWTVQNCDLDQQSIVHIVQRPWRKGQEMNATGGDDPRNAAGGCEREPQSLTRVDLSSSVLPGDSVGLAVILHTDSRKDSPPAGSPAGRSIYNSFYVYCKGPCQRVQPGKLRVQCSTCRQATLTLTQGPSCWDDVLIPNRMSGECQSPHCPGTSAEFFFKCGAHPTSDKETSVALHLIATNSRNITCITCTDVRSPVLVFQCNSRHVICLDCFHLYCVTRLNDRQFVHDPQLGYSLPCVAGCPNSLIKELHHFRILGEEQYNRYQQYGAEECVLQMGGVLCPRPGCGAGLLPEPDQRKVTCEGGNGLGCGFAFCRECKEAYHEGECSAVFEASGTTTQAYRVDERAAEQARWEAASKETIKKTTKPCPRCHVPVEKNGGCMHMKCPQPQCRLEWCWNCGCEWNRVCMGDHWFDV

Parkin (from UniProt O60260)
Kd: 20 nM
